From PMC12122859 (Communications Biology, 2025)

Columns and labels:
[1] = target: T1, E2 alone (as compared with E1E2) (Hepatitis C virus genotype 1b, strain …)
T1 chain: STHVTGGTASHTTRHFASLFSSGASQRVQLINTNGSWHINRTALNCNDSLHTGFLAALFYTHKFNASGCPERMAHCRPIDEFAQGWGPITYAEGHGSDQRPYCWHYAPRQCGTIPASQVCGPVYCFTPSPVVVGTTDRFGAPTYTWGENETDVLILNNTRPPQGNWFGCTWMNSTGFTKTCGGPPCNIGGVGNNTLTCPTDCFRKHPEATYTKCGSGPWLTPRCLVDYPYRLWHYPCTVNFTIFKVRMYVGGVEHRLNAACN

[2] = target: soluble recombinant E1E2 (hepatitis C virus (strain not stated))
[3] = target: membrane-bound recombinant E1E2 (hepatitis C virus (strain not stated))

B1: CBH4B (antibody, format not stated, as tested on E1E2 and E2 alone) (antibody, V domains shown)
VH: QIQLVQSGAEVKKPGSSVKVSCRASGGSFGTYGITWVRQAPGQGLEWVGGIVPLFDRPNYAQKFQDRVAITADESTSTAYMELSSLRFDDTAVYYCAREADIVVGGSSYFDSWGQGTLVTVTK
VL: ESVLTQSPGTLSLSPGERATLSCRASQSVSSTYVAWYQQKPGQAPRLLIYDASIRATGVPDRFSGGGSGTDFTLTISRLEPEDFAVYYCQQYGGSPFFGGGTKVEIK
Work on B1 yielded a Kd [1] of 0.08 nM, a Kd [2] of 19 nM and a Kd [3] of 3.1 nM.
